Series [1] deals with Flag-tagged Abi-1 expressed from pCMV-Flag-Abi1, Q8IZP0.
The target of series [2] is p120 catenin expressed from a transfected plasmid (exogenous p120, HA-tagged in Example 1).

Chain of Flag-tagged Abi-1 expressed from pCMV-Flag-Abi1, Q8IZP0 (Q8IZP0 whole entry, looked up): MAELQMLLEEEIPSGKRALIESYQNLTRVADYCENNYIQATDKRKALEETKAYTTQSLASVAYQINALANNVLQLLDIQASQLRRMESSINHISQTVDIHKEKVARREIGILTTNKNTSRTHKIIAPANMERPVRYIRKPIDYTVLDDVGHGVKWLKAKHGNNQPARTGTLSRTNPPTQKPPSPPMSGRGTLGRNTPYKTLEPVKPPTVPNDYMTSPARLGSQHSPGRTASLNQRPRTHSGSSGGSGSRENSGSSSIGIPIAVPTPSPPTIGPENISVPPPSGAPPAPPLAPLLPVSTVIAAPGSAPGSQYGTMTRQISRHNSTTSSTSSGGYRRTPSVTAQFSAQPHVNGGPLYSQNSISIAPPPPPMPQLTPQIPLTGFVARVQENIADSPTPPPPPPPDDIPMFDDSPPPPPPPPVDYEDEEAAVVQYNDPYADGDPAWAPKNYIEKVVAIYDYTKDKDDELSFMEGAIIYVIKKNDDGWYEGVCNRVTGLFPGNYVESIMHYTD

B1: kinase domain of ZC3 fused to GST (protein)
chain: MGDPAPARSLDDIDLSALRDPAGIFELVEVVGNGTYGQVYKGRHVKTGQLAAIKVMDVTEDEEEEIKQEINMLKKYSHHRNIATYYGAFIKKSPPGNDDQLWLVMEFCGAGSVTDLVKNTKGNALKEDCIAYICREILRGLAHLHAHKVIHRDIKGQNVLLTENAEVKLVDFGVSAQLDRTVGRRNTFIGTPYWMAPEVIACDENPDATYDYRSDIWSLGITAIEMAEGAPPLCDMHPMRALFLIPRNPPPRLKSKKWSKKFIDFIDTCLIKTYLSRPPTEQLLKFPFIRDQPTERQVRIQLKDHIDRSRKKRGEKEETE
Take B1: the “in vitro phosphorylation (32P-ATP, autoradiography)” value was “A strongly phosphorylated band corresponding to Abi-1 appears in the sample containing immunoprecipitated Abi-1 and GST-ZC3KD” in series [1]; “MBP is known to be a good in vitro substrate for ZC3 and is indeed strongly phosphorylated” in the series with Myelin Basic Protein.

B2: purified GST-ZC1 kinase domain (protein)
chain: MANDSPAKSLVDIDLSSLRDPAGIFELVEVVGNGTYGQVYKGRHVKTGQLAAIKVMDVTEDEEEEIKLEINMLKKYSHHRNIATYYGAFIKKSPPGHDDQLWLVMEFCGAGSITDLVKNTKGNTLKEDWIAYISREILRGLAHLHIHHVIHRDIKGQNVLLTENAEVKLVDFGVSAQLDRTVGRRNTFIGTPYWMAPEVIACDENPDATYDYRSDLWSCGITAIEMAEGAPPLCDMHPMRALFLIPRNPPPRLKSKKWSKKFFSFIEGCLVKNYMQRPSTEQLLKHPFIRDQPNERQVRIQLKDHIDRTRKKRGEKDETEYEYSGSEE
Regarding B2, the “in vitro phosphorylation (32P-ATP, autoradiography; gel mobility shift)” value in series [2] is given as “added purified recombinant ZC1 enzyme induced phosphorylation of p120”.

Values taken from US20050276757.
